Source: publication doi:10.1101/2025.10.13.682238

Molecular target: GST tag (glutathione S-transferase affinity tag, free in the ATAD2B sample)
Experiment: SEC; Superdex 200 Increase 10/300 GL on an ÄktaPrime system, ATAD2B sample from E. coli compared with a molecular weight standard mixture (thyroglobulin 670 kDa, ovalbumin 44 kDa)

Sequence of GST tag (glutathione S-transferase affinity tag, free in the ATAD2B sample) (P08515 2-218): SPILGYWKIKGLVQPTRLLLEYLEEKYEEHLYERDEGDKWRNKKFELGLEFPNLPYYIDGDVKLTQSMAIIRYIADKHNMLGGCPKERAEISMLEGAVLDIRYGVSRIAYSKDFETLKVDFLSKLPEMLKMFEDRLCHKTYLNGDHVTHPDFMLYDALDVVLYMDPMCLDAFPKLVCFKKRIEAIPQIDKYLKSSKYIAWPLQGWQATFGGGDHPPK

Substance “GST tag (glutathione S-transferase affinity tag, free in the ATAD2B sample) (natural protein)” has a stoichiometry N of 2.
